Data published in patent CN114958811A.
Where two headings read alike, the source gives them in different places.

Tests used:
[1] = target: RBD-Fc (义翘神州 40592-V05H) (SARS-CoV-2) (UniProt P0DTC2)
[2] = target: RBD-Fc (义翘神州 40592-V05H) (SARS-CoV-2) (UniProt P0DTC2); remark: listed apart in the source

hACE2-Fc融合蛋白 (fusion of the human ACE2 extracellular domain with the Fc fragment of human IgG1) (Fc fusion)
IC50 [1]: 7.6 nM | IC50 [2]: 5.02 nM
